The chains are these.
B1: NDP-α-MSH-linker-linker-ACTH1-24 (peptide)
peptide: Ac-SYS[Nle]EH[dF]RWGKPVGGGGSGGGGSSYSMEHFRWGKPVGKKRRPVKVYP
B2: ACTH1-24-point-3-5-NDP-α-MSH (peptide)
peptide: SYSMEHFRWGKPVGKKAAAVKVYPSYS[Nle]EH[dF]RWGKPV
B3: ACTH1-24-point-5-4aa-NDP-α-MSH (peptide)
peptide: SYSMEHFRWGKPVGKKRRAVKVYPGGGSSYS[Nle]EH[dF]RWGKPV
B4: ACTH1-24-point-1-2-7aa-NDP-α-MSH (peptide)
peptide: SYSMEHFRWGKPVGAARRPVKVYPGGGGSGGSYS[Nle]EH[dF]RWGKPV
modifications: ends and bridges not checked
B5: ACTH1-24-point-1-2-4aa-NDP-α-MSH (peptide)
peptide: SYSMEHFRWGKPVGAARRPVKVYPGGGSSYS[Nle]EH[dF]RWGKPV
modifications: ends and bridges not checked
B6: ACTH1-24-point-3-5-7aa-NDP-α-MSH (peptide)
peptide: SYSMEHFRWGKPVGKKAAAVKVYPGGGGSGGSYS[Nle]EH[dF]RWGKPV
modifications: ends and bridges not checked
B7: ACTH1-24-4aa-NDP-α-MSH (peptide)
peptide: SYSMEHFRWGKPVGKKRRPVKVYPGGGSSYS[Nle]EH[dF]RWGKPV
modifications: ends and bridges not checked
B8: ACTH1-24-7aa-NDP-α-MSH (peptide)
peptide: SYSMEHFRWGKPVGKKRRPVKVYPGGGGSGGSYS[Nle]EH[dF]RWGKPV
modifications: ends and bridges not checked
B9: ACTH1-24-linker-linker-NDP-α-MSH (peptide)
peptide: SYSMEHFRWGKPVGKKRRPVKVYPGGGGSGGGGSSYS[Nle]EH[dF]RWGKPV
modifications: ends and bridges not checked
B10: ACTH1-24-point-3-5-4aa-NDP-α-MSH (peptide)
peptide: SYSMEHFRWGKPVGKKAAAVKVYPGGGSSYS[Nle]EH[dF]RWGKPV
modifications: ends and bridges not checked
B11: ACTH1-24-point-5-10aa-NDP-α-MSH (peptide)
peptide: SYSMEHFRWGKPVGKKRRAVKVYPGGGGSGGGGSSYS[Nle]EH[dF]RWGKPV
B12: ACTH1-24-point-5-7aa-NDP-α-MSH (peptide)
peptide: SYSMEHFRWGKPVGKKRRAVKVYPGGGGSGGSYS[Nle]EH[dF]RWGKPV
B13: ACTH1-24-point-1-2-10aa-NDP-α-MSH (peptide)
peptide: SYSMEHFRWGKPVGAARRPVKVYPGGGGSGGGGSSYS[Nle]EH[dF]RWGKPV
modifications: ends and bridges not checked
B14: ACTH1-24-point-1-2-NDP-α-MSH (peptide)
peptide: SYSMEHFRWGKPVGAARRPVKVYPSYS[Nle]EH[dF]RWGKPV
modifications: ends and bridges not checked
B15: ACTH1-24-point-3-5-10aa-NDP-α-MSH (peptide)
peptide: SYSMEHFRWGKPVGKKAAAVKVYPGGGGSGGGGSSYS[Nle]EH[dF]RWGKPV
modifications: ends and bridges not checked

Square brackets hold non-standard residues; d marks the D form. Ends that are not written are not given here. Nle = CCCC[C@H](N)C(=O)O

Sequence of MCR1 (Q01726 whole entry): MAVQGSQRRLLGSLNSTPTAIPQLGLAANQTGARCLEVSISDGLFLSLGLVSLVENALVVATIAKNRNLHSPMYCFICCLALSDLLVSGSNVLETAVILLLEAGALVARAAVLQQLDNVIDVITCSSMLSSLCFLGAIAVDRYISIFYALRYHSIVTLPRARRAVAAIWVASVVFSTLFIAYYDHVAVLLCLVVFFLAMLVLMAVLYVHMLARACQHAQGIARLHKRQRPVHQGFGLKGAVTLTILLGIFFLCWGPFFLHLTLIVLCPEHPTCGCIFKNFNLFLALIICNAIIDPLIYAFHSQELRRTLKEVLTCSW

The first assay addresses MCR1 (human, UniProt Q01726 1-317). The experiment in a line: cell-based or functional assay.
Take B1: the “MCR1 EC50 (nM); cAMP production, LANCE cAMP assay, CHO-MCR1 cells, cell pool C” value (shortened to “MCR1 EC50 (nM); cAMP production”) was 0.46 nM.
The same measure, in the same setting: the figure for B2 is 0.32 nM; for B3 it is 0.32 nM; for B4 it is 0.3 nM.
Regarding B5, the “MCR1 EC50 (nM); cAMP production” value was 0.25 nM.
On the same count and under the same terms, the value for B6 was 0.41 nM.
Still for that read-out and setting: the figure for B7 is 0.41 nM.
On to B8, for which the “MCR1 EC50 (nM); cAMP production” value is 0.24 nM.
Still for that read-out and setting: the value for B9 was 0.39 nM; that for B10 was 0.3 nM; that for B11 was 0.69 nM.
B12: the “MCR1 EC50 (nM); cAMP production” value amounted to 0.22 nM.
The same measure, in the same setting: the figure for B13 is 0.45 nM; for B14 it is 0.28 nM; for B15 it is 0.78 nM.

The target in a further assay is MCR3 (human, UniProt P41968 1-323). The assay is described as follows: cell-based or functional assay.
Sequence of MCR3 (P41968 whole entry): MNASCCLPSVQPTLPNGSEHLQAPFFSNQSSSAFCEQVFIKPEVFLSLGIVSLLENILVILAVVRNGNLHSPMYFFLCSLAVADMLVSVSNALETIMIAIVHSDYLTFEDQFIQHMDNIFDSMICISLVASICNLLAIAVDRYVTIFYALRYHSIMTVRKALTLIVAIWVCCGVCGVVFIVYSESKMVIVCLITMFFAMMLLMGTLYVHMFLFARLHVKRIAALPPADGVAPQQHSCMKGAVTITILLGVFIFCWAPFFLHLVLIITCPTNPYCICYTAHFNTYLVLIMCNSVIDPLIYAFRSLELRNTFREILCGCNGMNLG
As for B1, the “MCR3 EC50 (nM); cAMP production, LANCE cAMP assay, CHO-MCR3 cells, cell pool C” value (shortened to “MCR3 EC50 (nM); cAMP production”) stood at 1.8 nM.
On the same count and under the same terms, the figure for B2 is 0.92 nM; for B3 it is 0.68 nM; for B4 it is 0.47 nM.
Same read-out and setting: the value for B5 was 0.42 nM; that for B6 was 0.72 nM.
The same measure, in the same setting: the figure for B7 is 0.92 nM; for B8 it is 0.85 nM.
As to B9, the “MCR3 EC50 (nM); cAMP production” value is 0.8 nM.
Turning to B10, the “MCR3 EC50 (nM); cAMP production” value turned out to be 0.61 nM.
Same read-out and setting: the value for B11 was 1 nM; that for B12 was 0.76 nM; that for B13 was 0.58 nM.
Still for that read-out and setting: the value for B14 was 0.72 nM.
Same read-out and setting: the value for B15 was 1.1 nM.

In another assay the target is MCR4 (human, UniProt P32245 1-332). The experiment in a line: cell-based or functional assay.
Sequence of MCR4 (P32245 whole entry): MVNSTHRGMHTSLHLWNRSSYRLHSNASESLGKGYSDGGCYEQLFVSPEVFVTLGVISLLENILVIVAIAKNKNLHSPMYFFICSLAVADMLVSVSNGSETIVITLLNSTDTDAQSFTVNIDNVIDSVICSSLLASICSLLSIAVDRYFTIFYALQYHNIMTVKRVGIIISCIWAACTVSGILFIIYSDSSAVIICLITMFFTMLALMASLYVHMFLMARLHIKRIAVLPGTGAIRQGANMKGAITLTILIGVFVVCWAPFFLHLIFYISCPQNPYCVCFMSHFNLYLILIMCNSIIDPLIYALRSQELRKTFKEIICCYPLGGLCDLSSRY
With B1, the “MCR4 EC50 (nM); cAMP production, LANCE cAMP assay, CHO-MCR4 cells, cell pool C” value (shortened to “MCR4 EC50 (nM); cAMP production”) amounted to 2.2 nM.
Same read-out and setting: the value for B2 was 2.2 nM; that for B3 was 1.8 nM.
On the same count and under the same terms, the value for B4 was 2.3 nM; that for B5 was 1.7 nM; that for B6 was 2.4 nM.
On the same count and under the same terms, the value for B7 was 1.9 nM; that for B8 was 1.5 nM; that for B9 was 1.8 nM.
B10: the “MCR4 EC50 (nM); cAMP production” value came out at 2.4 nM.
Still for that read-out and setting: the value for B11 was 2.8 nM.
For the molecule B12, the “MCR4 EC50 (nM); cAMP production” value is 2.1 nM.
On the same count and under the same terms, the value for B13 was 2.3 nM; that for B14 was 1.4 nM.
Same read-out and setting: the figure for B15 is 3.8 nM.

For the next assay, the target named is MCR5 (human, UniProt P33032 1-325). The assay is described as follows: cell-based or functional assay.
Sequence of MCR5 (P33032 whole entry): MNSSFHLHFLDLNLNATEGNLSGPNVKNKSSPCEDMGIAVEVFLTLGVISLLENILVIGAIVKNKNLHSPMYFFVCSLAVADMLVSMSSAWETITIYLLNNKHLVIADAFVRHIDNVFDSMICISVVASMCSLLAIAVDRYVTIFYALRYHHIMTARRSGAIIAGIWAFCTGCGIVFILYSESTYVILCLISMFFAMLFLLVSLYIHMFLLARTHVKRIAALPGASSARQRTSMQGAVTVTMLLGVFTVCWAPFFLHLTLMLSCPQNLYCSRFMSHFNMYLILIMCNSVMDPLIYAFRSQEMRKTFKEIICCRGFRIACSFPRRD
B1: the “MCR5 EC50 (nM); cAMP production, LANCE cAMP assay, CHO-MCR5 cells, cell pool C” value (shortened to “MCR5 EC50 (nM); cAMP production”) came out at 9.8 nM.
Same read-out and setting: the figure for B2 is 25 nM.
With B3, the “MCR5 EC50 (nM); cAMP production” value is 20 nM.
Same read-out and setting: the value for B4 was 10 nM; that for B5 was 11 nM; that for B6 was 8.5 nM.
Same read-out and setting: the value for B7 was 9.3 nM; that for B8 was 13 nM; that for B9 was 9.6 nM.
The same measure, in the same setting: the value for B10 was 14 nM.
Regarding B11, the “MCR5 EC50 (nM); cAMP production” value worked out at 11 nM.
Same read-out and setting: the value for B12 was 12 nM; that for B13 was 13 nM.
The same measure, in the same setting: the value for B14 was 21 nM; that for B15 was 16 nM.

Values taken from US20190054150A1 (AEQUUS BIOPHARMA, published 2019).
